# In US20220259289A1 (Janssen / Centocor, published 2022):
# Numbering of substitutions follows the chain as printed.
# B1: ISOP193BR9P1B12 (designed binder, not shown: small tags and cut ends)
# chain: LPAPKNLVVSRVTEDSARLSWPDESRPVRFDSFLIQYQESEKVGEAIVLTVPGSERSYDLTGLKPGTEYTVSIYGVLRPWIYATNDSNPLSAIFTT
# B2: ISOP193BR9P1H6 (designed binder, not shown: small tags and cut ends)
# chain: B1 chain with L77V, R78G, P79Q, I81K, N85A
# B3: ISOP193BR9P1H2 (designed binder, not shown: small tags and cut ends)
# chain: B1 chain with L77H, R78T, P79R, W80D, I81W, Y82T, T84W, D86A
# B4: ISOP193AR9P1G8 (designed binder, not shown: small tags and cut ends)
# chain: LPAPKNLVVSRVTEDSARLSWHATFGDPFDSFLIQYQESEKVGEAIVLTVPGSERSYDLTGLKPGTEYTVSIYGVGRHYTVYDSNPLSAIFTT
# B5: ISOP193AR9P1A11 (designed binder, not shown: small tags and cut ends)
# chain: LPAPKNLVVSRVTEDSARLSWALSSVHAYFDSFLIQYQESEKVGEAIVLTVPGSERSYDLTGLKPGTEYTVSIYGVQYVDGFFKSNPLSAIFTT
# B6: ISOP193BR9P1G6 (designed binder, not shown: small tags and cut ends)
# chain: LPAPKNLVVSRVTEDSARLSWDDQFEDWFDSFLIQYQESEQVGEAIVLTVPGSERSYDLTGLKPGTEYTVSIYGVHTRDWTAWNASNPLSAIFTT
# B7: ISOP120FR5P1D7 (designed binder, not shown: small tags and cut ends)
# chain: LPAPKNLVVSRVTEDSARLSWTAPDAAFDSFIIRYLEDISYGEAIVLTVPGSERSYDLTGLKPGTEYHVGIEGVKGGNVSWPLSAIFTT
# B8: ISOP120FR5P1F8 (designed binder, not shown: small tags and cut ends)
# chain: B7 chain
# B9: ISOP193BR9P1G9 (designed binder, not shown: small tags and cut ends)
# chain: LPAPKNLVVSRVTEDSARLSWKQVTVAPEFDSFLIQYQESEKVGEAIVLTVPGSERSYDLTGLKPGTEYTVSIYGVKFPYYYATADSNPLSAIFTT
# B10: ISOP193BR9P1G3 (designed binder, not shown: small tags and cut ends)
# chain: LPAPKNLVVSRVTEDSARLSWAQSNQQFDSFLIQYQESEKVGEAIVLTVPGSERSYDLTGLKPGTEYTVSIYGVVWQNWVAYNSNPLSAIFTT
# B11: ISOP193AR9P1F4 (designed binder, not shown: small tags and cut ends)
# chain: LPAPKNLVVSRVTEDSARLSWLEQEQFVNHFDSFLIQYQESEKVGEAIVLTVPGSERSYDLTGLKPGTEYTVSIYGVQYVDGFFKSNPLSAIFTT
# B12: ISOP193BR9P1G11 (designed binder, not shown: small tags and cut ends)
# chain: LPAPKNLVVSRVTEDSARLSWAGHYRKIRNFDSFLIQYQESEKVGEAIVLTVPGSERSYDLTGLKPGTEYTVSIYGVKFPYYYATADSNPLSAIFTT
# B13: ISOP193BR9P1G2 (designed binder, not shown: small tags and cut ends)
# chain: B12 chain with K78A, F79E, P80H, Y81W, A86Q
# B14: ISOP193AR9P1G5 (designed binder, not shown: small tags and cut ends)
# chain: LPAPKNLVVSRVTEDSARLSWRISDRLPLFDSFLIQYQESEKVGEAIVLTVPGSERSYDLTGLKPGTEYTVSIYGVGRHYTVYDSNPLSAIFTT
# B15: ISOP193ER9P1A10 (designed binder, not shown: small tags and cut ends)
# chain: LPAPKNLVVSRVTEDSARLSWTAPDAAFDSFDIYYFEHPVGGEAIVLTVPGSERSYDLTGLKPGTEYLVTIYGVKGGHFSGPLSAIFTT
# B16: ISOP193ER9P1G5 (designed binder, not shown: small tags and cut ends)
# chain: B15 chain with H78Y, F79L, G81M
# B17: ISOP193BR9P1E6 (designed binder, not shown: small tags and cut ends)
# chain: LPAPKNLVVSRVTEDSARLSWGAITALFDSFLIQYQESEKVGEAIVLTVPGSERSYDLTGLKPGTEYTVSIYGVKFPYYYATADSNPLSAIFTT
# B18: ISOP193BR9P1H3 (designed binder, not shown: small tags and cut ends)
# chain: LPAPKNLVVSRVTEDSARLSWNRLDSEWVAFDSFLIQYQESEKVGEAIVLTVPGSERSYDLTGLKPGTEYTVSIYGVVFRPWLAYNSNPLSAIFTT
# B19: ISOP193AR9P1A6 (designed binder, not shown: small tags and cut ends)
# chain: LPAPKNLVVSRVTEDSARLSWKFGEVAFDSFLIQYQESEKVGEAIVLTVPGSERSYDLTGLKPGTEYTVSIYGVGRHYTVYDSNPLSAIFTT
# B20: ISOP193AR9P1E6 (designed binder, not shown: small tags and cut ends)
# chain: B19 chain with G24H, E25S, V26P, A27T, F90V
# B21: ISOP193AR9P1C10 (designed binder, not shown: small tags and cut ends)
# chain: B19 chain with K22P, F23N, G24H, E25I, V26S, A27I, H77F, Y81F
# B22: ISOP193AR9P1B12 (designed binder, not shown: small tags and cut ends)
# chain: LPAPKNLVVSRVTEDSARLSWTNEQITKYGFDSFLIQYQESEKVGEAIVLTVPGSERSYDLTGLKPGTEYTVSIYGVGAPYTVYDSNPLSAIFTT
# B23: ISOP193AR9P1H8 (designed binder, not shown: small tags and cut ends)
# chain: B22 chain with A79R, P80F, Y84F
# How the values were obtained:
# [1] = biological target: T1, recombinant biotinylated CD137 protein (Fc-fusion protein, R&D Systems 838-4B) (human, UniProt Q07011 24-186, biotinylated, sites not stated); test: ELISA, lysate on biotinylated CD137-Fc
# T1 construct: Bought Fc fusion; also called CD137-Fc
# Method: (§1) Streptavidin-coated Maxisorp plates (Nunc catalog 436110) were blocked for 1 h in Starting Block T20 (Pierce) and then coated with biotinylated CD137 (using same antigen as in panning) or negative controls (an unrelated Fc-fused recombinant protein and human serum albumin) for 1 h. Plates were rinsed with TBST and diluted lysate was applied to plates for 1 h. Following additional rinses, wells were treated with HRP-conjugated anti-Centyrin antibody (PAB25) for 1 h and then assayed with POD (Roche catalog 11582950001).
# [2] = biological target: unrelated Fc-fused recombinant protein; test: ELISA, negative control Fc protein
# human serum albumin = biological target: T2, human serum albumin (human, UniProt P02768 25-609); test: ELISA, negative control HSA
# T2 construct: Negative control of the ELISA; also called HSA
# T2 sequence (P02768 25-609 limits assumed): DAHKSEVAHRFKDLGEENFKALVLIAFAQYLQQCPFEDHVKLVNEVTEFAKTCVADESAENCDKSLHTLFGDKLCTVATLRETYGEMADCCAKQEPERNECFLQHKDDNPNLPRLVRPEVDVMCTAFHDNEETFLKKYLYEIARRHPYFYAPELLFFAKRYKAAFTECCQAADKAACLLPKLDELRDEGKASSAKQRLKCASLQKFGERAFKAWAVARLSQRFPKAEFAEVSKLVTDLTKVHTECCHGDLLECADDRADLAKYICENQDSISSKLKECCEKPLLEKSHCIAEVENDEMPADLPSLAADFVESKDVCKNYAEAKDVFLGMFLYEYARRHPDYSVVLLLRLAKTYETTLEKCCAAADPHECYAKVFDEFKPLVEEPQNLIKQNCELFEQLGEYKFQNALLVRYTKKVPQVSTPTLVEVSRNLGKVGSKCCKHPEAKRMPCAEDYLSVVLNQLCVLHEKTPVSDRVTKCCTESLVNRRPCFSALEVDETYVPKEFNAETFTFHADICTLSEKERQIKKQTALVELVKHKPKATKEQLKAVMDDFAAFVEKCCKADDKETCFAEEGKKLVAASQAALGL
# Method: as §1
# [3] = biological target: unrelated Fc-fused recombinant protein (negative control); test: ELISA, bacterial lysate on plate-bound antigen, luminescence
Binder,ELISA CD137 (RLU) [1] [RLU],ELISA Fc Control (RLU) [2] [RLU],ELISA HSA (RLU) (human serum albumin),ELISA Fc Control (RLU) [3] [RLU]
B1,6.55e+06,14000,2880,–
B2,8.86e+06,8320,2880,–
B3,3.5e+06,11800,3280,–
B4,4.26e+06,1440,720,–
B5,8.66e+06,1440,320,–
B6,8.09e+06,2640,960,–
B7,–,–,–,400
B8,–,–,–,240
B9,3.73e+06,1200,720,–
B10,4.71e+06,1360,640,–
B11,3.84e+06,1520,720,–
B12,4.99e+06,56900,9600,–
B13,6.15e+06,15900,2160,–
B14,4.02e+06,1120,720,–
B15,1.49e+07,1120,240,–
B16,–,1440,–,–
B17,4.63e+06,2560,560,–
B18,5.26e+06,2080,1360,–
B19,6.74e+06,960,480,–
B20,4.18e+06,1200,720,–
B21,7.14e+06,3520,960,–
B22,2.76e+06,2240,1440,–
B23,3.72e+06,3040,1040,–
